Experimental data as given in PMC4027180.

System: Stf76 (Sulfolobus islandicus plasmid-virus pSSVx)
Assay: ITC
Settings: EMSA: 20 mM Tris-acetate pH 8.0, 50 mM K acetate, 10 mM Mg acetate, 1 mM DTT, 5% glycerol, 1 ug salmon sperm DNA, 50 C protein pre-incubation, binding 37 C …

Q: Which Kd does the source give for “GGAAACAGTATTAATAAAGTGTTAATCCTATTACCC (double strand) [probe A' (35 bp-site A)]” here?
A: The Kd was 40 nM.
